# Patent EP1073891B1, “METHOD OF PREDICTING RECEPTOR MODULATING ACTIVITY” (Duke University, priority 1998, dated 1999)
# Experiments:
# ERα-VP16 = molecular target: T1, ERα-VP16 (Homo sapiens, UniProt P03372); assay: Mammalian two-hybrid in HepG2 cells, Gal4-peptide fusions, luciferase reporter (Example 4.1); assay type: cell-based; conditions: Gal4-peptide fusion, various ligands (Fig. 7)
# T1 construct: expressed in transfected cells; host or cells: HepG2
# T1 sequence (P03372 1-595): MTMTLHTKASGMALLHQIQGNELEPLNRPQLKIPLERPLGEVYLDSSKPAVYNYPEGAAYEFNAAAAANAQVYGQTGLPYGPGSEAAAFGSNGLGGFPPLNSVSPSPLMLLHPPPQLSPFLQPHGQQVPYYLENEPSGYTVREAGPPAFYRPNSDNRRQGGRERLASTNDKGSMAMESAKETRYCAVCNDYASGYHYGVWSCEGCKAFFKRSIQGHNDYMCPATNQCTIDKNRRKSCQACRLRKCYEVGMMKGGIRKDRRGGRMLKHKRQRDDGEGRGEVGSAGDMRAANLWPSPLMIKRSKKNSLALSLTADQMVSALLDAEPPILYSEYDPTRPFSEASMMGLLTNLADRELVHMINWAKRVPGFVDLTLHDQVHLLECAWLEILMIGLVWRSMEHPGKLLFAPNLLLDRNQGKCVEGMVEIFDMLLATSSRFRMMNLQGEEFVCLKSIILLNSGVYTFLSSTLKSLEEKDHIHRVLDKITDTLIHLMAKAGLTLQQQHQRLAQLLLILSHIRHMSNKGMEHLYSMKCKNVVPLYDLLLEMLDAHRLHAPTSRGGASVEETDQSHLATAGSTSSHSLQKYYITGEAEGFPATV
# Excerpt: Peptide sequences representing each class was fused to the DNA binding domain (DBD) of the yeast transcription factor Ga14. HepG2 cells were then transiently transfected with expression vectors for ERα-VP16 and the Gal4-peptide fusion proteins. In addition, a luciferase reporter construct under the control of 5 copies of a Ga14 upstream enhancer element was also transfected along with a pCMV-β galactosidase vector to normalize for transfection efficiency. Transfection of the Ga14 DBD alone is included as control. Cells were then induced with various ligands as indicated in the figure and assayed for luciferase activity and β galactosidase activity. Normalized response was obtained by dividing the luciferase activity by the β galactosidase activity.
# ERα [1] = molecular target: T2, ERα (Homo sapiens, UniProt P03372); assay: Disruption of ER mediated transcriptional activity, C3-Luc reporter in HepG2 cells (Example 4.4); assay type: cell-based; conditions: Gal4-peptide fusion; for block of the partial agonist activity of tamoxifen: 4-OH tamoxifen activated ER; for inhibition of the ability of estradiol to activate transcription: estradiol (10 nM) activated ER
# T2 sequence (P03372 1-595): T1 sequence (P03372 1-595)
# Excerpt: Then HepG2 cells were transfected as above except that expression vectors for Gal4-peptide fusions were included as indicated in 10B. […] Increasing amounts of input plasmid for each Gal4-peptide fusion is also shown with the resulting transcriptional activity presented as % activation of control.
# ER = molecular target: T3, ER (Homo sapiens, UniProt P03372); assay: Disruption of tamoxifen activated ER transcription on several promoters (1x-ERE-Luc, 3X-ERE-Luc, TK-ERE-Luc, C3-Luc) (Example 4.5); assay type: cell-based; conditions: tamoxifen (10nM), TK-ERE-Luc and C3-Luc
# T3 construct: expressed in transfected cells; host or cells: HepG2
# T3 sequence (P03372 1-595): T1 sequence (P03372 1-595)
# ERα [2] = molecular target: T2, ERα; assay: Phage ELISA / fingerprint on ER immobilized on biotinylated ERE (Examples 2.3-2.5); assay type: binding; design: purchased PanVera Corporation, Madison, WI; conditions: for binding to ERα in the in vitro phage display system: presence or absence of estradiol / 4-OH-tamoxifen
sequence,measurement,setting,value
SSLTSRDFGSWYASR [α II],interaction with ERα (normalized luciferase response),ERα-VP16,"interacts with the receptor under all conditions with the apo-receptor and ICI 182,780 bound receptor showing the least activity"
same,block of the partial agonist activity of tamoxifen,ERα [1],efficiently block
same,inhibition of the ability of estradiol to activate transcription,ERα [1],up to 50%
same,block of tamoxifen activated transcription on distinct promoters,ER,blocks tamoxifen partial agonist activity from all promoters tested
same,binding of the probe to ER α,ERα [2]; in the presence of modulators,binds to ER α in the presence of any compound that binds to the estrogen receptor
same,binding to ERα in the in vitro phage display system,ERα [2],"bind in the presence of estradiol and 4-OH-tamoxifen, but not in their absence"
SSNHQSSRLIELLSR [α/β I],interaction with ERα (normalized luciferase response),ERα-VP16,interacts with ER in the presence of estradiol and somewhat with the apo-receptor
same,block of the partial agonist activity of tamoxifen,ERα [1],is not
same,inhibition of the ability of estradiol to activate transcription,ERα [1],up to 50%
SSPGSREWFKDMLSR [α/β V],interaction with ERα (normalized luciferase response),ERα-VP16,interact almost exclusively with the tamoxifen bound receptor
same,block of the partial agonist activity of tamoxifen,ERα [1],efficiently block
same,block of estradiol mediated transcription,ERα [1],inability
SSWDMHQFFWEGVSR [α/β III],interaction with ERα (normalized luciferase response),ERα-VP16,interact almost exclusively with the tamoxifen bound receptor
same,block of the partial agonist activity of tamoxifen,ERα [1],efficiently block
same,block of estradiol mediated transcription,ERα [1],inability
same,binding to ERα in the in vitro phage display system,ERα [2],binds to ERα only in the presence of 4-OH-tamoxifen
